The values below are quoted from earlier work in publication PMC9152818.

Read-outs that look alike come from different tables or passages of the source.

What is called Kd is the concentration at which binding is half-saturated.

Series [1] addresses spike protein RBD (SARS-CoV-2) (UniProt P0DTC2).
Series [2] addresses spike protein (SARS-CoV-2) (UniProt P0DTC2).
Series [3] addresses spike protein RBD (SARS-CoV-2) (UniProt P0DTC2). The source holds these as a separate data set.
Series [4] has as its target spike protein CendR peptide CendR peptide (SARS-CoV-2) (UniProt P0DTC2).
In series [5] the target is spike protein RBD (SARS-CoV-2) (UniProt P0DTC2). This is another data set of the same source.

Take ASGR1 (from UniProt P07306): the Kd in series [1] was 0.095 µM.
Regarding AXL (from UniProt P30530), in series [2], the Kd is 1 µM.
Regarding Kremen1 (from UniProt Q96MU8), in series [3], the Kd is 0.02 µM.
Consider Neuropilin-1 (from UniProt O14786), for which, in series [4], the Kd is 20 µM.
For the substance “soluble trimeric ACE2 (from UniProt Q9BYF1)”, the Kd in series [5] is under 0.001 µM.
